Results reported in patent US20250297021A1 (SHANDONG SIMCERE BIOPHARMACEUTICAL CO NO 1, published 2025).
“And” between values parts separate entries of the source, which are not always exact repeats. Identical values can stand only once.

How the values were obtained:
[1] = target: T1, human BCMA-His protein (human, UniProt Q02223 1-54); assay: SPR, antibody captured on Protein A chip, BCMA-His in solution, 1:1 Langmuir
T1 construct: Bought protein; also called human BCMA protein; BCMA antigen protein; not shown: His tag
T1 sequence (looked up): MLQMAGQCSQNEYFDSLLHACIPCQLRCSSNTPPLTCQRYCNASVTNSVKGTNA
Experimental: (§1) A sample buffer and a running buffer were HBS-EP+ (10 mM HEPES, 150 mM NaCl, 3 mM EDTA and 0.05% surfactant P20) (GE Healthcare; BR-1006-69). The flow-through cell was set to 25° C. The sample block was set to 16° C. Both were pretreated with the running buffer. In each cycle, an antibody to be tested was first captured with a Protein A chip, and then a single concentration of BCMA antigen protein was injected. The binding and dissociation processes of the antibody and the antigen protein were recorded, and finally Glycine pH 1.5 (GE Helthcare; BR-1003-54) was used to complete chip regeneration. Binding was measured by injecting different concentrations of BCMA-His in solution for 240 s with a flow rate of 30 μL/min. The concentration started from 200 nM (see the detailed results for the actual concentration in the test) and was diluted at 1:1, making a total of 5 concentrations. The dissociation phase was monitored for up to 600 s and was triggered by switching from sample solution to running buffer. The surface was regenerated by washing with a 10 mM glycine solution (pH 1.5) for 30 s at a flow rate of 30 μL/min. Bulk refractive index difference was corrected by subtracting the response obtained from the goat anti-human Fc surface. Blank injection was also subtracted (=double reference). For calculation of apparent KD and other kinetic parameters, Langmuir 1:1 model was used. The binding rate (Kₐ), dissociation rate (Kdis) and binding affinity (KD) of the chimeric antibodies to human BCMA protein are shown in the table, wherein REGN5459-hlgG1 and HPN217-hHcAb antibodies were used as controls.

[2] = target: T2, human BCMA on cells (human, UniProt Q02223 1-184); assay: FACS, H929 cells
T2 construct: whole, on cells; also called H929 cells; U266 cells
T2 sequence (looked up): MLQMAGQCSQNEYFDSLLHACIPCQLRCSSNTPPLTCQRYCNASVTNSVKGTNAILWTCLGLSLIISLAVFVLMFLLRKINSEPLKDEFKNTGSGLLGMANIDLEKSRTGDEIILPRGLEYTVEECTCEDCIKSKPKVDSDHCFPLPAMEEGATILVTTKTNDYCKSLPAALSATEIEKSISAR
Experimental: (§2) H929 cells, U266 cells and RPMI8226 cells were subjected to scale-up culture in T-75 cell culture flask to logarithmic growth phase, and the cells were pipetted to single cell suspension. After counting the cells, centrifugation was performed and the cell pellet was resuspended in FACS buffer (PBS+2% fetal calf serum) to 2×10⁶ cells per ml, and the obtained suspension was added to a 96-well FACS reaction plate at 50 μl per well.

[3] = target: T2, human BCMA on cells; assay: FACS, U266 cells
Experimental: as §2

[4] = target: T2, human BCMA on cells; assay: FACS, H929 cells; remark: listed apart in the source
Experimental: (§3) The desired cells were scale-up cultured in T-75 cell culture flasks to the logarithmic growth phase, and the cells were pipetted into a single cell suspension. After the cells were counted, the cells were centrifuged and the cell pellet was resuspended in FACS buffer (PBS+2% fetal calf serum) to 2×10⁶ cells per ml, and the suspension was added to the 96-well FACS reaction plate at 50 μl per well, then the sample to be tested of the chimeric antibody was added at 50 μl per well and the mixture was incubated at 4° C. for 1 h. The obtained mixture was centrifuged and washed 3 times with a PBS buffer. […] The obtained mixture was centrifuged and washed 3 times with a PBS buffer. 100 μl of the mixture was taken for detection and result analysis by FACS (FACS Canto™, purchased from BD Company). Data analysis was performed by software (FlowJo) to obtain the mean fluorescence intensity (MFI) of the cells. Then, a software (GraphPad Prism8) was used for analysis, data fitting and EC50 calculation. The results are shown in Table 10 and FIGS. 10A-10B, FIGS. 11A-11B, and FIGS. 12A-12B. All seven chimeric antibodies bind to three types of BCMA-expressing endogenous cells.

[5] = target: T2, human BCMA on cells; assay: FACS, U266 cells; remark: listed apart in the source
Experimental: as §3

[6] = target: T2, human BCMA on cells; assay: FACS, RPMI8226 cells
Experimental: as §2

[7] = target: T2, human BCMA on cells; assay: FACS, RPMI8226 cells; remark: listed apart in the source
Experimental: as §3

[8] = target: T3, human BCMA-His protein (human, UniProt Q02223 1-54); assay: ELISA, coated human BCMA-His
T3 construct: bought; also called human BCMA protein; not shown: His tag
T3 sequence (looked up): T1 sequence (looked up)

[9] = target: T4, monkey BCMA-His protein (monkey, UniProt A0A2K5UD97 1-53); assay: ELISA, coated monkey BCMA-His
T4 construct: bought; monkey species not further stated for this product; also called monkey BCMA protein

[10] = target: T3, human BCMA-His protein; assay: competition ELISA, coated human BCMA; blocked ligand hAPRIL-biotin
[11] = target: T5, BCMA expressed endogenously on U266 and H929 cells (UniProt Q02223 1-184, limits assumed); assay: FACS on U266 cells
T5 construct: whole, on cells; The cell line (U266 or H929) is named under assay in each row; also called B cell maturation antigen; CD269
T5 sequence (looked up): T2 sequence (looked up)
Experimental: as §3
The specific method was the same as that in Example 5 (C). First, the binding of humanized antibodies to U266 cells was detected. Based on the results, some humanized antibodies were selected and tested for binding to H929 cells. […]

[12] = target: T6, human BCMA-His protein (human, UniProt Q02223 1-54); assay: SPR, antibody captured on Protein A chip, BCMA-His as analyte
T6 construct: Analyte in the SPR assay; also called human BCMA protein; BCMA antigen protein; not shown: His tag
T6 sequence (looked up): T1 sequence (looked up)
Experimental: as §1
The specific method was the same as that in Example 6. The binding rate (Kₐ), dissociation rate (Kdis) and binding affinity (KD) of the humanized antibodies to human BCMA protein are shown Table 38, wherein REGN5459-hlgG1 antibody is used as a control.

T4 sequence (A0A2K5UD97 entry or part of it limits assumed): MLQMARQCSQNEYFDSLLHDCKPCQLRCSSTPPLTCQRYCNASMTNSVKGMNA

B1: HPN217-hHcAb (VHH)
VHH: EVQLVESGGGLVQPGRSLTLSCAASTNIFSISPYGWYRQAPGKQRELVAAIHGTSTLYADSVKGRFTISRDNAKNSIYLQMNSLRPEDTALYYCNKVPWGDYHPGNVYWGQGTQVTVSS
notes: also called control antibody
Kd [1]: 0.818 nM
koff [1]: 0.00273 s⁻¹
kon [1]: 3.34e+06 M⁻¹ s⁻¹

B2: REGN5459-hIgG1 (antibody, V domains shown)
VH: EVQLVESGGGLVQPGGSLRLSCAASGFTFSNFWMTWVRQAPGKGLEWVANMNQDGSEKYYVDSVKGRFTISRDNAKSSLYLQMNSLRAEDTAVYYCARDREYCISTSCYDDFDYWGQGTLVTVSS
VL: not shown
EC50 [2]: 6.78 nM
EC50 [3]: 9.12 nM
EC50 [4]: 8.39 nM and 7.74 nM
EC50 [5]: 9.52 nM and 12.8 nM
EC50 [6]: 10.4 nM
EC50 [7]: 6.79 nM and 4.52 nM
EC50 (read off the curve) [8]: ~0.1 nM
EC50 (read off the curve) [9]: ~0.1 nM
IC50 (read off the curve) [10]: ~5 nM

B3: REGN5459-hIgG1 (antibody, V domains shown)
VH: B2 VH
VL: not shown
notes: also called REGN5459-hlgG1; control antibody
Kd [1]: 0.2 nM
koff [1]: 0.00017 s⁻¹
kon [1]: 850000 M⁻¹ s⁻¹

B4: REGN5459-hIgG1 (antibody, V domains shown)
VH: B2 VH
VL: not shown
notes: Positive control antibody
EC50 [11]: 9.81 nM and 19.4 nM and 9.49 nM and 18.2 nM
Kd [12]: 0.233 nM
koff [12]: 0.000178 s⁻¹
kon [12]: 766000 M⁻¹ s⁻¹
